Assay results: patent publication US20200246383A1 (REGENTS OF THE UNIVERSITY OF MINNESOTA, published 2020)

Columns and labels:
[1] = target: T1, human dipeptidyl peptidase IV expressed on cells (PC3 and CaCo2 cells) (human, UniProt P27487 1-766); test: flow cytometry, Alexa Fluor 488 conjugated B12 IgG on hDPP-IV-expressing PC3 cells against unstained cells
T1 construct: whole, on cells; also called hDPP-IV-expressing cells; hDPP-IV-positive cell lines

[2] = target: T2, recombinant human dipeptidyl peptidase IV (hDPP-IV), biotinylated (human, UniProt P27487 29-766, limits assumed, biotinylated); test: ELISA: B12 IgG 0.1 to 500 nM on biotinylated hDPP-IV captured on streptavidin-coated wells; detection with peroxidase anti-human IgG mAb; OD 450nm
T2 construct: also called human DPP-IV
T2 sequence (P27487 29-766 limits assumed): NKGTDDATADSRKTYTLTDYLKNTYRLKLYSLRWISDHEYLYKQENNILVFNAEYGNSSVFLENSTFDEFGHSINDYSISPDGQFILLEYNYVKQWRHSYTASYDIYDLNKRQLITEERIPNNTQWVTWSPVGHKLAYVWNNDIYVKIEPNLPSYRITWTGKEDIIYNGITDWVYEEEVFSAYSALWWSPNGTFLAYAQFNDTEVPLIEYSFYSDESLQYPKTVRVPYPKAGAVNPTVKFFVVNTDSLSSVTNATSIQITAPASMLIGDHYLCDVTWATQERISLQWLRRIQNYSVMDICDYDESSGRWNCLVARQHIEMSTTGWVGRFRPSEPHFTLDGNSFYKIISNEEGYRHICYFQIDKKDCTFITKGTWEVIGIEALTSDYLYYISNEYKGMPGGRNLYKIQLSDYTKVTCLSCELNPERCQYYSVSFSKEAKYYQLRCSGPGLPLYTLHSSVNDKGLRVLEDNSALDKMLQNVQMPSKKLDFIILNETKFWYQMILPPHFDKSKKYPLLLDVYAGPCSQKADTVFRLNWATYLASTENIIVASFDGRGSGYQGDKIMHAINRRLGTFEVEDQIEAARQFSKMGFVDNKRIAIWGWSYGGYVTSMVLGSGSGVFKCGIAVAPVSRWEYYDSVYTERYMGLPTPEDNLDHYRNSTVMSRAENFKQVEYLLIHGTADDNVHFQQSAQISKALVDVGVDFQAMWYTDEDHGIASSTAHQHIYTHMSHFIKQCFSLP
Method: FIG. 2A-FIG. 2E show in vitro characterization of the anti-FAP monoclonal antibody B12 immunoglobulin G (IgG). FIG. 2A. B12 IgG specificity for human fibroblast activation protein alpha (hFAP) (circle), mouse fibroblast activation protein alpha (mFAP) (square), and the homologous protease human dipeptidyl peptidase IV (hDPP-IV) (triangle) was determined by enzyme-linked immunosorbent assay (ELISA). B12 IgG was serial-diluted from 500 nM to 0.1 nM and added to protein coated wells. B12 IgG binding was detected by a peroxidase conjugated […] monoclonal antibody. FIG. 2B. […] FIG. 2C. B12 IgG binding to membrane-bound FAP was analyzed by flow cytometry. […] Unstained cells (blue line) were used as a negative control. FIG. 2D. mRNA levels of hDPP-IV were investigated by quantitative RT-PCR in prostate (R1-EnzR, R1-EnzR^FAP, PC3) and colon (Caco2) cancer cells. mRNA fold change is normalized to R1-EnzR. **p 0.01. FIG. 2E.
Dilution ELISA: A MaxiSorp plate was coated and blocked as described above. 50 μL of biotinylated human FAP, murine FAP, or human DPP-IV ([…] in PBS, 1% BSA, 0.005% Tween20) was added to 8 sets of triplicate wells each. […] B12 IgG binding was detected with a 1:1000 dilution of anti-human IgG monoclonal antibody conjugated to peroxidase (sc-2769, Santa Cruz Biotechnology, Dallas, Tex.) in PBS, 1% BSA.

T1 sequence (P27487 whole entry): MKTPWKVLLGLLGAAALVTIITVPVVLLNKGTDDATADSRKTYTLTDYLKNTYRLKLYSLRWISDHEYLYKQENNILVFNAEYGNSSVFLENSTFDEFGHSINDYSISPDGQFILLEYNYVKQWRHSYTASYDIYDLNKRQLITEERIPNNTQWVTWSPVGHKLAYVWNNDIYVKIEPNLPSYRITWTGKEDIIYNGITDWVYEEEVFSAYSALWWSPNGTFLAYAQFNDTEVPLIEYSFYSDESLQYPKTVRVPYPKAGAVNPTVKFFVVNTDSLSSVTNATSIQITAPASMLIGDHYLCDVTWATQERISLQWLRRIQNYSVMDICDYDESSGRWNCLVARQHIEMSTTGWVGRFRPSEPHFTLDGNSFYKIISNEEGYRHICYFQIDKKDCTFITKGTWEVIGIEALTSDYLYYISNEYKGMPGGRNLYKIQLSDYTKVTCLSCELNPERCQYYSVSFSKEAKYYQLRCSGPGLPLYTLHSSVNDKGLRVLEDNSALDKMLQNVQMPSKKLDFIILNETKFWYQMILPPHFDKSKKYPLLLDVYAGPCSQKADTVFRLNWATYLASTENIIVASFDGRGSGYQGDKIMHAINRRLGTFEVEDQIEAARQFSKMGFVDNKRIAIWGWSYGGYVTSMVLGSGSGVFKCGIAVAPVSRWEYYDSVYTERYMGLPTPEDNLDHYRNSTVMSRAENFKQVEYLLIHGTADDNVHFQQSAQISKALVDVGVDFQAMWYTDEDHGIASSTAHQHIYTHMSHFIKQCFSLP

B1: B12 IgG (chimeric anti-FAP monoclonal antibody: murine B12 variable domains in a full-length human IgG) (antibody, V domains shown)
VH: EVMLVESGGGLVQPGGSLKLSCAASGFTFSSYGMSWVRQTPDKRLELVATINSNGGSTYYPDSVKGRFTISRDNAKNTLYLQMSSLKSEDTAMYYCARDYFDYWGQGTTLTVSS
VL: DIVITQSPSSLSASLGERVSLTCRASQEISGYLSWLQQKPDGTIKLIYAASTLDSGVPKRFSGSRSGSDYSLTISSLESEDFADYYCLQYASYPWTFGGGTKLEIKR
notes: They were cloned into pFUSEss human IgG expression vectors (Invivogen) and expressed in HEK293T cells; capture was detected with an anti-human IgG1 secondary and the isotype control is human IgG1; also called anti-FAP mAb; aFAP
binding result [1]: no binding (tested: 100 nM) | binding result [2]: no binding (tested: 500 nM)
